Measurements published in the Human Domainome abundance scans (Beltran et al. 2025).

B1: COUP transcription factor 1, residues 83 to 159; numbered along this chain, P10589 (parent)
chain: HIECVVCGDKSSGKHYGQFTCEGCKSFFKRSVRRNLTYTCRANRNCPIDQHHRNQCQYCRLKKCLKVGMRREAVQRG

Variants of: B1
Experiment: abundance fitness (aPCA) (normalised: wild type 0, dead -1); higher = more abundant; growth selection in yeast, the domain comes from the species named
Details: Homo sapiens

Abundance fitness: each site, then its substitutions
S11: G -0.071 | C 0.182 | A -0.184 | M -0.101 | F 0.085 | D -0.28 | W -0.236 | T -0.044 | E -0.314 | H 0.314 | Q 0.01 | R -0.377 | V -0.399 | N -0.155 | Y 0.177 | L -0.281
G13: R -0.243 | P -0.175 | M -0.049 | A 0.171 | D 0.053 | V -0.288 | F -0.206 | T -0.115 | S -0.193 | I -0.199 | E 0.089 | C -0.95 | L -0.358 | Q 0.074 | W -1.04 | N -0.068 | H -0.306
S12: H -0.096 | R -0.205 | Q 0.007 | K -0.194 | P -0.094 | N 0.003 | M -0.113 | I -0.027 | W -0.675 | T 0.165 | L -0.247 | Y -0.489 | A -0.018 | E 0.1 | V 0.076 | G 0.021 | C -0.578
T20: M -0.079 | A -0.051 | K -0.868 | I 0.232 | L -0.084 | E -0.116 | P -0.402 | C 0.163 | N -0.191 | F -0.106 | G -0.242 | H -0.541 | D -1.13
K10: Y 0.045 | V -0.235 | W -0.233
H15: W 0.196 | T -0.28 | Y -0.144 | M 0.548 | S -0.212 | R -0.364 | N 0.148 | Q -0.052 | E 0.202 | K -0.857 | L 0.001 | A -0.029 | V -0.135 | D -0.226 | G -0.101 | C -0.362 | P 0.125
F19: R -0.098 | I -0.279 | A -0.101 | G -0.53 | W -0.01 | V -0.269 | Y 0.352 | S 0.032 | Q 0.125 | T -0.094 | M -0.149 | C -0.216 | D -0.052 | E 0.166 | H -0.037 | L -0.129
G17: I -0.515 | S -0.191 | V -0.421 | D -0.072 | P -0.572 | H -0.459 | E -0.156 | C -0.274 | Y -0.396 | K -0.452 | A -0.358 | N -0.165 | M -0.703 | L -0.437 | R -0.421 | Q 0.044 | T -0.319
Y16: D 0.111 | L -0.152 | N -0.539 | P -0.355 | K -0.209 | S -0.047 | A -0.441 | I -0.297 | T -0.274 | W 0.132 | F 0.201 | V -0.151 | R -0.31 | M -0.154 | Q 0.096 | C 0.074 | G -0.157 | E -0.05
K14: P 0.201 | T -0.113 | G -0.315 | D 0.228 | Q 0.274 | R -0.217 | N 0.019 | L 0.111 | W -0.423 | M 0.016 | E 0.417 | Y -0.068 | V 0.115 | S 0.174 | H 0.524
Q18: T -0.137 | E 0.143 | I -0.051 | L 0.01 | K -0.031 | C 0.187 | R -0.041 | M 0.067 | D 0.08 | S -0.028 | P 0.079 | N -0.345 | Y -0.389 | W -0.459 | V 0.261 | G -0.061 | A 0.098 | F 0.151
